# Tests used:
# [1] = molecular target: T1, Influenza A H1N1 (A/Puerto Rico/8/1934) Hemagglutinin/HA Protein (ECD, His Tag) (Influenza A H1N1 (A/Puerto Rico/8/1934), UniProt P03452 18-528); experiment: ELISA, coated antigen
# T1 construct: extracellular domain; Bought; also called influenza A/PR8 (H1N1) hemagglutinin (HA); H1N1 HA
# SARS S1 protein, His Tag = molecular target: T2, SARS S1 protein, His Tag (SARS-CoV-1, UniProt P59594 14-667); experiment: ELISA, coated antigen, mAb 3 µg/mL
# T2 construct: domain: S1; also called recombinant severe acute respiratory syndrome coronavirus 1 (SARS-CoV-1) spike protein
# T1 sequence (P03452 18-528): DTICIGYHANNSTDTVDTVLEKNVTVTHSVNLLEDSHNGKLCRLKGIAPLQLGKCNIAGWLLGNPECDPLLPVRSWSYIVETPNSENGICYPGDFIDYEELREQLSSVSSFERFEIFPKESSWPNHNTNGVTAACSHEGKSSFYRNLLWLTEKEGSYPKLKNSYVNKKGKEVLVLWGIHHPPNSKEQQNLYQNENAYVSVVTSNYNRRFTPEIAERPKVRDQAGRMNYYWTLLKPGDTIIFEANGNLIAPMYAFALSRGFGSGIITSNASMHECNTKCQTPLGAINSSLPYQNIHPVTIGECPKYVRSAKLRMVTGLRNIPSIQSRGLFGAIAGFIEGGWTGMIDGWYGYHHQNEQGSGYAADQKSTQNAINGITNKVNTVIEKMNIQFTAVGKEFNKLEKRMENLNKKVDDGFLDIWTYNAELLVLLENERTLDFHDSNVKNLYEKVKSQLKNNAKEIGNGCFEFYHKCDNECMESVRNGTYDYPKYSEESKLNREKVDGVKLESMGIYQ
binder,measurement,setting,value
"IGHV6-3 monoclonal antibody (mouse IgG2c, Ig kappa) (antibody, V domains shown, also called IGHV6-3 mAb; Mouse IGHV6-3 mAb, g2c) VH: EVKLEESGGGLVQPGGSMKLSCVASGFTFSNYWMNWVRQSPEKGLEWVAQIRLKSDNYATHYAESVKGRFTISRDDSKSSVYLQMNNLRAEDTGIYYCTDITGPIDYWGQGTTLTVSS VL: DIKMTQSPSSMYASLGERVTITCKASQDINSYLSWFQQKPGKSPKTLIYRANRLVDGVPSRFSGSGSGQDYSLTISSLEYEDMGIYYCLQYDEFPYTFGGGTKLEIK",binding result,[1],binds
same,binding result,"SARS S1 protein, His Tag",binds

# — patent US20250051425A1 (YALE UNIVERSITY, published 2025)
